Data published in patent US20230071889A1 (OSE IMMUNOTHERAPEUTICS, published 2023).

T1: CD132 receptor (Sinobiological 10555-H08B) (UniProt P31785 23-254)
T1 construct: Bought protein injected over the CD127/IL-7 complex in Biacore; also called common γ chain
T1 sequence (looked up): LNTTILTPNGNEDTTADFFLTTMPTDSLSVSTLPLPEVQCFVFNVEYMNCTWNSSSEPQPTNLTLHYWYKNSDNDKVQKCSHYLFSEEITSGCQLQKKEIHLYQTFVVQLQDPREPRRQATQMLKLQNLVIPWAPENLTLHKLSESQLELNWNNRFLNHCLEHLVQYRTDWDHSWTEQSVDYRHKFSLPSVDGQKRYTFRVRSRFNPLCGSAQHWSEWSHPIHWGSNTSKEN


Legend:
[1] = target: T2, recombinant human PD-1 (Example 2) (human, UniProt Q15116 25-167, limits assumed, biotinylated in the PD-L1 ELISA (site not stated)); test: competition ELISA: PD-L1 coated, antibody mixed with biotinylated PD-1 at 0.6 ug/mL, streptavidin peroxidase; blocked ligand PD-L1
T2 construct: Biotinylated form in the ELISA on PD-L1; recombinant human PD-1 (100 nM) in the Biacore assay on PD-L2; also called biotinylated recombinant human PD-1; PD-1 recombinant protein
T2 sequence (Q15116 25-167 limits assumed): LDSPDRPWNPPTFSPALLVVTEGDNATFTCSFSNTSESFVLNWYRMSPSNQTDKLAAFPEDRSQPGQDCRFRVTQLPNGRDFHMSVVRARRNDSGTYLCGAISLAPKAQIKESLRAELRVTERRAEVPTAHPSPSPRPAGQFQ

[2] = target: T1, CD132 receptor (Sinobiological …); test: Biacore, CD132 injected over the CD127/IL-7 complex on the chip
Procedure: CD127 (Sinobiological, 10975-H03H-50) was immobilized onto a CM5 biochip at 20 μg/ml and the indicated protein were added at serial concentrations (0.34; 1.03; 3.11; 9.3; 28 nM).

IC50 (read off the curve) [1] [nM]	Kd [2] [nM]	Binder
~4	–	anti-PD1 antibody, chimeric form (antibody, human IgG4 S228P, kappa, V domains shown, also called anti-PD1 alone) VH: QIQLVQSGPELKKPGETVKISCKASGYTFTHYGMNWVKQAPGKGLKWMGWINTNTGEPTYAEEFKGRFAFSLETSASAAFLQINNLKNEDTATYFCAKEREPGMDSWGQGTSVTVSS VL: DVLLTQTPLSLPVSLGDQASISCRSSQNIVHANGNTYLEWYLQKPGQSPKLLIYKVSNRFSGVPDRFSGSGSGTDFTLKITRVEAEDLGVYYCFQGSHVPNTFGGGTKLEIKR
–	198	recombinant IL-7 cytokine (rIL7) (Biorad PHP046) (ligand, human, UniProt P13232 26-177, looked up, Bought cytokine) DCDIEGKDGKQYESVLMVSIDQLLDSMKEIGSNCLNNEFNFFKRHICDANKEGMFLFRAARKLRQFLKMNSTGDFDLHLLKVSEGTTILLNCTGQVKGRKPAALGEAQPTKSLEENKSLKEQKKLNDLCFLKRLLQEIKTCWNKILMGTKEH
